Data: paper doi:10.1101/2021.06.02.446795

Target: HMPV nucleoprotein N (strain CAN97-83), full-length, N-RNA rings (human metapneumovirus (strain CAN97-83))
Test: SEC

## HMPV nucleoprotein N (strain CAN97-83), full-length, N-RNA rings (natural protein)
  stoichiometry N: 10
